How the values were obtained:
[1] = parameters: species or system male Sprague-Dawley rats; conditions: rat, in vivo, iv
Experimental: (§1) The metabolite profiling in the biological samples from rats dosed with [^14C]-peginesatide was performed by high-performance liquid chromatography (HPLC). The radiolabeled materials in the samples of plasma and aqueous homoge-nates of tissues and feces were extracted with five volumes of methanol containing 0.1% of trifluoroacetic acid (TFA), mixed and centrifuged at 1500g at 4°C for l0 min to obtain supernatant. A portion of the supernatant was counted to estimate the extraction recovery of [^14C]-peginesatide and its related compounds in the biological samples. The rest of the supernatant was evaporated to dryness under a nitrogen gas stream. The residue was re-dissolved in a small volume of equal parts mobile phase [MP(A)] and B [MP(B)] for chromatographic analysis. The HPLC system (Simadzu, Kyoto, Japan) consisted of a LC-lOADvp pump, a CTO-lOACvp column oven, an SPD-lOAvp UV detector, and an SCL-lOAvp system controller. […] A mixture of 0.1% TFA aqueous solution and 0.1% TFA in methanol solution were used for MP(A) and MP(B), respectively. The flow rate was 0.5mL/min, and the peaks were monitored by a UV absorption detector at 215 run. The time for the gradient elution was as follows: the concentration of MP(B) was increased from 50 to 80% and from 80 to 83% over a period of 2-10min and 10-20min, respectively. […] The effluentwas collected into 0.5mL size fractions, followed by counting of the radioactivity (LSC). Under these conditions unchanged peginesatide and mono-PEG eluted at approximately 22 and 10 min, respectively.
The urine and fecal samples were obtained from the animals (n = 3) dosed in the mass balance study. Urine and fecal samples were collected every 24h and were combined into 2 aliquots (0-168 and 168-336h) for metabolite analysis. The urine and fecal samples were subjected to analysis by HPLC-fraction collection. Urine sample radioactivity was measured by LSC and fecal homogenate samples were measured by LSC following combustion.

[2] = parameters: species or system male Sprague-Dawley rats; conditions: rat, in vivo, iv; remark: listed apart in the source
Experimental: The metabolite profiling in the biological samples from rats dosed with [^14C]-peginesatide was performed by high-performance liquid chromatography (HPLC). The radiolabeled materials in the samples of plasma and aqueous homoge-nates of tissues and feces were extracted with five volumes of methanol containing 0.1% of trifluoroacetic acid (TFA), mixed and centrifuged at 1500g at 4°C for l0 min to obtain supernatant. A portion of the supernatant was counted to estimate the extraction recovery of [^14C]-peginesatide and its related compounds in the biological samples. The rest of the supernatant was evaporated to dryness under a nitrogen gas stream. The residue was re-dissolved in a small volume of equal parts mobile phase [MP(A)] and B [MP(B)] for chromatographic analysis. The HPLC system (Simadzu, Kyoto, Japan) consisted of a LC-lOADvp pump, a CTO-lOACvp column oven, an SPD-lOAvp UV detector, and an SCL-lOAvp system controller. […] The flow rate was 0.5mL/min, and the peaks were monitored by a UV absorption detector at 215 run. […] The effluentwas collected into 0.5mL size fractions, followed by counting of the radioactivity (LSC). […]
Noncompartmental PK parameters for peginesatide and metabolites were generated using WinNonlin ver. […] Apparent terminal half-life (t1/2) was calculated as In2/λz. The AUC0-inf was calculated as the sum of AUC0-t and Cobs/λz, where Cobs, was the actual concentration at the time of the last quantifiable concentration. […] The mean residence time (MRT) was calculated as the ratio of AUMC0-inf/AUC0-inf, where AUMC0-inf was the area under the first moment curve from the time zero to infinity. […]
The plasma metabolic profile of [^14C]-peginesatide was determined by the HPLC analysis described above and measurement of radioactivity using LSC. […] The moieties detected were designated as peginesatide or mono-PEG (peginesatide with one PEG chain), with the remaining radioactivity designated as “Other” The classification of Other is anticipated to encompass smaller PEGylated-peptide and peptide/ amino acid components. […]

[3] = In vivo metabolite profiling, plasma and tissues at 14 days; parameters: species or system male Sprague-Dawley rats; conditions: rat, iv, 5 mg/kg
Experimental: as §1
A single dose of [^14C]-peginesatide at 5 mg·kg^−1 was administered to male Sprague-Dawley rats (n = 9) by IV injection. At 14 days after dosing, animals were euthanized and samples of plasma, liver, spleen, kidneys, testes, and bone marrow were collected. Plasma and tissue extract samples were analyzed for levels of total radioactivity, peginesatide, and potential metabolites using LSC. Tissue homogenates (prepared in saline at a concentration of 20% [w/v] for the liver, kidneys and testes and 10% [w/v] for the spleen and bone marrow) were analyzed for radioactivity by LSC following combustion. The concentration of radioactivity in the blood, plasma, and tissues was calculated and expressed as ug equiv·g^-1 or mL based on the LSC counts and the specific activity of the dosing solution.

[4] = Plasma total radioactivity pharmacokinetics after single IV [^14C]-peginesatide (LSC); format: in vivo, male Sprague-Dawley rats; conditions: single 5 mg-kg^-1 IV [^14C]-peginesatide, n=3
Experimental: Total captured radioactivity was subsequently measured via LSC.
The plasma samples were analyzed for total radioactivity using LSC.
Noncompartmental PK parameters for peginesatide and metabolites were generated using WinNonlin ver. 4.0, Pharsight Corporation (Mountain View, CA). The maximum plasma concentration (Cmax) and their times of occurrence (tmax) were obtained directly from the mean plasma concentration vs. time profiles. The areas under the plasma concentration-time curves […] were estimated by the linear trapezoidal rule - by adding all the area portions under the curve from time zero to the time of the last observed plasma concentration (tn). Elimination rate constants (kz) were estimated by fitting a linear regression of log mean concentration against time data in the terminal exponential phase (at least 3 data points). Apparent terminal half-life (t1/2) was calculated as In2/λz. The AUC0-inf was calculated as the sum of AUC0-t and Cobs/λz, where Cobs, was the actual concentration at the time of the last quantifiable concentration. The plasma clearance (CL) for peginesatide was estimated as the ratio of dose/ AUC0-inf. The mean residence time (MRT) was calculated as the ratio of AUMC0-inf/AUC0-inf, where AUMC0-inf was the area under the first moment curve from the time zero to infinity. The volume of distribution at steady state (Vss) was estimated as CL x MRT.

[5] = ref Fan et al. 2006; cited from earlier work
Experimental: Multiple clearance mechanisms may be involved with peginesatide as clearance involves glomerular filtration; a presumably non-saturable elimination. […] High concentrations of radioactivity were also measured in the liver. In addition, negligible excretion (<0.1%) of the radiolabel was d ...

Peginesatide
Percent dose excretion, Feces 0–168 h [1]: 1.9 % dose
Percent dose excretion, Feces 0–336 h [1]: 1.9 % dose
Percent dose excretion, Feces 168–336 h [1]: LOQ (0)
Percent dose excretion, Urine 0–168 h [1]: 23.3 % dose
Percent dose excretion, Urine 0–336 h [1]: 27.5 % dose
Percent dose excretion, Urine 168–336 h [1]: 4.2 % dose
Tmax [2]: 15 min
t½α [2]: 29.1 h
t½β [2]: 110 h
Day 14 concentration, Bone marrow [3]: 3.22 μg equiv·g^−1 or mL
Day 14 concentration, Liver [3]: 5.63 μg equiv·g^−1 or mL
Day 14 concentration, Plasma [3]: 1.94 μg equiv·g^−1 or mL
Day 14 concentration, Spleen [3]: 14.3 μg equiv·g^−1 or mL
Day 14 concentration, Testes [3]: 2.68 μg equiv·g^−1 or mL
percent radioactivity, Bone marrow, Day 14 [3]: 58.2%
percent radioactivity, Kidneys, Day 14 [3]: 54.1%
percent radioactivity, Liver, Day 14 [3]: 63.2%
percent radioactivity, Spleen, Day 14 [3]: 61.2%
percent radioactivity, Testes, Day 14 [3]: 66.0%
share of total tissue radioactivity across liver, spleen, kidney, testes and bone marrow [3]: 54-66%
Cmax, total radioactivity [4]: 150 ug equiv·mL^−1
clearance in a rat chronic renal insufficiency model compared to a rat with normal renal function [5]: twofold lower clearance

From PMC3409459, “Absorption, distribution, metabolism and excretion of peginesatide, a novel erythropoiesis-stimulating agent, in rats” (Xenobiotica; the Fate of Foreign Compounds in Biological …, 2011)
